What was measured:
[1] = molecular target: H1N1特异性的表位肽 (SEQ ID NO:4) (Influenza A virus H1N1)
[2] = molecular target: H1N1特异性的表位肽 (SEQ ID NO:4) (Influenza A virus H1N1); test: indirect ELISA, titre of purified ascites antibody

B1: 3E6单克隆抗体 (antibody, V domains shown)
VH: EVQLEESGTELARPGASVKLALKASGYIFSSYSGQWIKQRPGAGLELIGYPYPGWIDTRYTQKLTGKATLTADKSSSTLYMQLSSLASEDSAVAYCAGSYFSSDAWGLGTTLAVSS
VL: DIVLTQSPALMAASAGEKVTITCAVSQSIQSGYLAWYQQKSGISPKPWIYDTSNQAGGVPARFSGAGSGTSYSLTITSMEAEDAATYYCAQGTTSPLSFGAGTKLELK
- Kd [1]: 0.48 nM
- OD492 at dilution 1:1000 [2]: 4.91 OD492
- OD492 at dilution 1:10000 [2]: 1.89 OD492
- OD492 at dilution 1:100000 [2]: 0.455 OD492
- OD492 at dilution 1:1000000 [2]: 0.121 OD492
- OD492 at dilution 1:10000000 [2]: 0.0632 OD492

Reference: CN112063765A
